Molecular target: GFP-tagged mProVII chains (in the FRET assay) (mouse)
Assay: FRET or BRET

FRET efficiency EF: 5.83%
Substance: RFP-tagged wild type mouse mini-procollagen VII α chain (domain or fragment)
